Measurements as given in the Human Domainome abundance scans (Beltran et al. 2025).
± gives the uncertainty stated by the source.

B1: Nucleolar transcription factor 1, residues 408 to 469; numbered along this chain, P17480 (parent)
chain: KRPVSAMFIFSEEKRRQLQEERPELSESELTRLLARMWNDLSEKKKAKYKAREAALKAQSER

Variants of: B1
Test: abundance fitness (aPCA) (normalised: wild type 0, dead -1); higher = more abundant; growth selection in yeast, the domain comes from the species named
Conditions: Homo sapiens

Abundance fitness: each site, then its substitutions
A47: L -0.064 ± 0.047, T -0.138 ± 0.11, D -0.291 ± 0.17, S -0.046 ± 0.063, P -0.695 ± 0.082, G -0.098 ± 0.052, K -0.029 ± 0.063, C -0.156 ± 0.13, F -0.11 ± 0.26, R -0.047 ± 0.05, H -0.295 ± 0.2, E -0.039 ± 0.086, I -0.184 ± 0.15, Q -0.005 ± 0.054, Y -0.122 ± 0.15, N -0.297 ± 0.23
K50: D -0.189 ± 0.1, P -0.65 ± 0.077, M -0.096 ± 0.083, H -0.036 ± 0.13, A -0.138 ± 0.076, C -0.049 ± 0.099, G -0.251 ± 0.074, Q -0.016 ± 0.079, R -0.032 ± 0.055, Y -0.074 ± 0.22, W -0.134 ± 0.059, F 0.002 ± 0.11, E -0.017 ± 0.08, V -0.038 ± 0.064, I 0.005 ± 0.11, S -0.131 ± 0.053
E53: R -0.389 ± 0.051, L -0.183 ± 0.056, M -0.164 ± 0.07, H -0.152 ± 0.091, Y -0.122 ± 0.091, N -0.37 ± 0.36, T -0.211 ± 0.064, A -0.056 ± 0.072, Q -0.146 ± 0.074, G -0.142 ± 0.081, W -0.133 ± 0.074, V -0.078 ± 0.051, S -0.13 ± 0.056, D -0.123 ± 0.076, K -0.366 ± 0.083, I -0.356 ± 0.15, C -0.086 ± 0.11, F -0.186 ± 0.068
K48: F -0.066 ± 0.067, D 0.024 ± 0.13, H -0.213 ± 0.35, C -0.081 ± 0.15, T -0.005 ± 0.053, P -0.009 ± 0.074, Y -0.209 ± 0.18, E 0.104 ± 0.24, V -0.101 ± 0.055, W -0.094 ± 0.061, A 0.001 ± 0.053, Q -0.091 ± 0.18, S -0.048 ± 0.052, I -0.264 ± 0.36, R -0.047 ± 0.05, N 0.029 ± 0.18, G -0.07 ± 0.052, M -0.022 ± 0.056, L -0.11 ± 0.051
A54: S -0.071 ± 0.059, D 0.006 ± 0.13, I -0.142 ± 0.084, T -0.04 ± 0.054, E -0.063 ± 0.088, C -0.051 ± 0.1, F -0.181 ± 0.089, V -0.003 ± 0.052, Y -0.075 ± 0.075, W -0.199 ± 0.059, K -0.014 ± 0.054, L -0.056 ± 0.047, N -0.033 ± 0.099, Q -0.102 ± 0.068, H -0.014 ± 0.13, M -0.098 ± 0.084, P -0.267 ± 0.075, R -0.031 ± 0.037
K45: D -0.052 ± 0.097, T -0.067 ± 0.042, W -0.232 ± 0.047, P -0.435 ± 0.069, H -0.099 ± 0.11, I -0.07 ± 0.063, L -0.131 ± 0.054, S -0.023 ± 0.04, N -0.064 ± 0.072, A -0.048 ± 0.052, Q 0.014 ± 0.058, V -0.097 ± 0.042, F -0.105 ± 0.088, G -0.009 ± 0.044, C -0.002 ± 0.062, E 0.067 ± 0.055, Y -0.181 ± 0.094, R -0.061 ± 0.038, M -0.039 ± 0.049
R52: K 0.014 ± 0.1, Q 0.002 ± 0.06, M -0.092 ± 0.061, Y -0.324 ± 0.11, F -0.209 ± 0.1, N -0.277 ± 0.11, V -0.127 ± 0.058, L -0.114 ± 0.045, D -0.106 ± 0.14, H -0.1 ± 0.099, W -0.234 ± 0.077, T -0.042 ± 0.079, A -0.17 ± 0.066, I -0.134 ± 0.11, S -0.137 ± 0.046, C -0.111 ± 0.078, E -0.026 ± 0.073, P -0.254 ± 0.064, G -0.193 ± 0.048
S42: A -0.115 ± 0.058, W -1.06 ± 0.091, L -0.661 ± 0.052, M -0.654 ± 0.069, H -0.179 ± 0.22, Y -0.619 ± 0.099, C -0.155 ± 0.095, I -0.56 ± 0.097, K -0.294 ± 0.061, G -0.082 ± 0.05, N -0.147 ± 0.13, Q -0.288 ± 0.068, V -0.427 ± 0.036, E -0.121 ± 0.075, R -0.698 ± 0.062, P -0.081 ± 0.059, T -0.078 ± 0.049, D 0.002 ± 0.1
E43: W -0.276 ± 0.072, S -0.213 ± 0.17, G -0.231 ± 0.073, R -0.329 ± 0.064, P -0.592 ± 0.34, V -0.207 ± 0.11, L -0.205 ± 0.083, D -0.367 ± 0.29, A -0.001 ± 0.099
A55: R -0.058 ± 0.061, W -0.13 ± 0.064, T -0.062 ± 0.063, I -0.126 ± 0.1, N -0.141 ± 0.18, V -0.025 ± 0.072, E 0.058 ± 0.073, M -0.047 ± 0.091, C -0.028 ± 0.08, H 0.003 ± 0.17, P -0.132 ± 0.093, S -0.065 ± 0.056, F 0.059 ± 0.17, D -0.039 ± 0.12, Y -0.149 ± 0.14, G -0.046 ± 0.072, K -0.054 ± 0.087
K44: D 0.059 ± 0.087, C -0.126 ± 0.083, S 0.003 ± 0.041, P -0.037 ± 0.051, L -0.108 ± 0.043, T -0.023 ± 0.059, W -0.09 ± 0.053, E -0.021 ± 0.064, R -0.139 ± 0.035, V -0.034 ± 0.04, I -0.159 ± 0.081, M -0.096 ± 0.056, H -0.121 ± 0.12
L41: A -0.165 ± 0.061, S -0.228 ± 0.061, D -0.613 ± 0.079, R -0.57 ± 0.054, C -0.219 ± 0.093, Q -0.225 ± 0.07, F -0.362 ± 0.14, W -1.06 ± 0.074, N -0.609 ± 0.29, K -0.576 ± 0.075, M -0.066 ± 0.074, T -0.241 ± 0.065, H -0.8 ± 0.13, Y -0.507 ± 0.25, E -0.388 ± 0.061, P -0.846 ± 0.093, G -0.932 ± 0.049, I -0.139 ± 0.11, V -0.345 ± 0.042
A51: P -0.374 ± 0.094, W -0.219 ± 0.082, D -0.102 ± 0.06, Y -0.097 ± 0.18, H -0.142 ± 0.12, G -0.101 ± 0.047, K -0.052 ± 0.086, C -0.166 ± 0.094, S -0.066 ± 0.052, M -0.059 ± 0.074, V -0.059 ± 0.051, F -0.079 ± 0.07, I -0.148 ± 0.075, Q -0.053 ± 0.082, L -0.042 ± 0.051, E -0.033 ± 0.082
Y49: D -0.626 ± 0.075, R -0.913 ± 0.056, K -0.861 ± 0.1, S -0.718 ± 0.058, T -0.798 ± 0.12, F -0.221 ± 0.078, P -0.615 ± 0.084, L -0.577 ± 0.054, W -0.022 ± 0.06, G -0.761 ± 0.038, Q -0.756 ± 0.17, N -0.807 ± 0.09, E -0.643 ± 0.062, M -0.839 ± 0.08, H -0.597 ± 0.096, V -0.82 ± 0.052
K46: R -0.069 ± 0.04, G -0.806 ± 0.045, L -0.453 ± 0.046, C -0.537 ± 0.095, T -0.393 ± 0.089, Q -0.112 ± 0.068, W -0.736 ± 0.066, P -0.772 ± 0.1, H -0.662 ± 0.21, M -0.336 ± 0.07, Y -0.748 ± 0.084, F -0.785 ± 0.12, V -0.3 ± 0.043, E -0.708 ± 0.065, A -0.311 ± 0.045, D -0.896 ± 0.11, S -0.569 ± 0.069
K57: F -0.058 ± 0.081, E 0.017 ± 0.074, N -0.068 ± 0.11, I -0.045 ± 0.069, A -0.069 ± 0.049, S -0.005 ± 0.05, Q -0.16 ± 0.1, G -0.073 ± 0.052, W -0.146 ± 0.059, T -0.059 ± 0.054, D -0.096 ± 0.058, Y -0.162 ± 0.12, V -0.085 ± 0.042, C -0.048 ± 0.11, L -0.07 ± 0.044, P -0.087 ± 0.061, H -0.044 ± 0.098, R -0.079 ± 0.049
N39: R -0.058 ± 0.037, T -0.038 ± 0.065, Y -0.075 ± 0.082, P -0.608 ± 0.066, K -0.087 ± 0.097, V -0.166 ± 0.054, H -0.106 ± 0.11, L -0.122 ± 0.049, S -0.054 ± 0.046, W -0.203 ± 0.046, F -0.061 ± 0.1, Q -0.015 ± 0.058, M -0.071 ± 0.071, I -0.147 ± 0.12
D40: N -0.265 ± 0.087, V -0.188 ± 0.05, A -0.143 ± 0.06, E -0.058 ± 0.054, H -0.257 ± 0.21, R -0.237 ± 0.039, S -0.107 ± 0.064, Q -0.036 ± 0.081, P -0.911 ± 0.09, T -0.202 ± 0.078, G -0.094 ± 0.038, F -0.135 ± 0.13, K -0.15 ± 0.084, C -0.213 ± 0.077, M -0.044 ± 0.08, I -0.763 ± 0.27, W -0.319 ± 0.056, L -0.105 ± 0.052
L56: R -0.111 ± 0.05, M -0.145 ± 0.086, A -0.023 ± 0.055, N -0.157 ± 0.13, S 0.013 ± 0.083, P -0.156 ± 0.066, G -0.072 ± 0.042, D -0.078 ± 0.074, T 0.01 ± 0.089, V -0.036 ± 0.051, E -0.045 ± 0.055, C -0.164 ± 0.12, I 0.004 ± 0.063, Q -0.089 ± 0.084, F -0.076 ± 0.081, K -0.082 ± 0.051, H -0.05 ± 0.11, Y -0.085 ± 0.065
A58: F -0.03 ± 0.065, D 0.006 ± 0.1, I 0.022 ± 0.12, S -0.051 ± 0.048, P -0.084 ± 0.061, L -0.025 ± 0.039, G 0.001 ± 0.056, W -0.097 ± 0.067, Q -0.002 ± 0.065, R -0.041 ± 0.045, N 0.013 ± 0.059, K -0.042 ± 0.05, C -0.067 ± 0.072, H 0.029 ± 0.098, V -0.017 ± 0.053, E -0.069 ± 0.068
